Laboratory results: paper PMC4072508, “Genome-Wide Prediction and Validation of Peptides That Bind Human Prosurvival Bcl-2 Proteins” (PLoS Computational Biology, 2014)

T1: Mcl-1, Q07820
T1 chain: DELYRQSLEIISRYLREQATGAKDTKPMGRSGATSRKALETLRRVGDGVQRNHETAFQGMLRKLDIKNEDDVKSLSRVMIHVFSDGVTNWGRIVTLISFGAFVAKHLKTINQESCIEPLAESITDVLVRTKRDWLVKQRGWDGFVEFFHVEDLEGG

T2: Bfl-1, Q16548
T2 chain: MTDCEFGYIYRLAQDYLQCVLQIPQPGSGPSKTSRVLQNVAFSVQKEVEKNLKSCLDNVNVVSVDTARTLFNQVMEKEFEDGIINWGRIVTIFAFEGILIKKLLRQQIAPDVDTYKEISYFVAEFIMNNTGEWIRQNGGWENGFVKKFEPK


Experiments:
Test in all cases: peptide SPOT array, c-Myc-tagged receptor at 1 uM or 100 nM, anti-c-Myc-Cy3
Bcl-xL, Q07817 = molecular target: Bcl-xL, Q07817
Chain of Bcl-xL, Q07817 (Q07817 1-209): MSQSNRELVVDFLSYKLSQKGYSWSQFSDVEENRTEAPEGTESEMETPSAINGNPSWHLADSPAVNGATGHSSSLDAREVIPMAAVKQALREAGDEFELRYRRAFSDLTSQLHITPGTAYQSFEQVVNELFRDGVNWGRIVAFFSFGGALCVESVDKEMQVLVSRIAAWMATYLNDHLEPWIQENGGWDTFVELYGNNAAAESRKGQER

Mcl-1, Q07820 = molecular target: T1, Mcl-1, Q07820
Bfl-1, Q16548 = molecular target: T2, Bfl-1, Q16548

Row | Binder | SPOT signal as a fraction of Bim BH3's signal on the same receptor and array (Bcl-xL, Q07817) | SPOT signal as a fraction of Bim BH3's signal on the same receptor and array (Mcl-1, Q07820) | SPOT signal as a fraction of Bim BH3's signal on the same receptor and array (Bfl-1, Q16548)
1 | AIKWDPTGNLLASCLDDMTLKIWSMK [TBL1XR1] | 0.07 | 0.05 | 
2 | SWFIQSLCAMLKQYLDKLEFMHILTR [CASP3] | 0.27 |  | 0.21
3 | NKSLTTLGLVISSLADQAAGKGKSKF [KIF13A] | 0.4 | 0.18 | 
4 | ERAISCMGQIICNLGDNLGSDLPNTL | 0.01 | 0.01 | 
5 | MEMYQPSAVVLQCGLDSLSGDRLGCF [HDAC2] | 0.06 | 0.04 | 0.03
6 | SKFVILSAHKDVFIGDTLSRQAKAAD [BCAR1] | 0.01 | 0.02 | 
7 | RGAMLSLATGDAHSGSDLSLLVPEIE [FAM115A] | 0.06 | 0.04 | 
8 | HPRKESQVRQLAWVGDGVWVSIRLDS [SPAG9] | 0.02 | 0.02 | 
9 | IQENVDISTVYQIFLDEVLGSGQFGI [PRKD3] | 0.08 | 0.05 | 0.05
10 | ERAISCMGQIDCNLGDNLGSDLPNTL | 0.01 | 0.01 | 
11 | THFLDEEVKLIKKMGDHLTNLHRLGG [FTL] |  |  | 0.04
12 | GLFSATSGVDLKYVADTFGQEVRPVS [DDX7] | 0.02 | 0.02 | 
13 | KQMKEDGACLFRAVLDQVYGDQDMHE [OTUD5] |  |  | 0.0567
14 | ADVHGIWSRLFCDFLDEFEVLDTTGE [UBA6] | 0.06 | 0.05 | 0.04
15 | DSLLWKLAGLLRESGDVVLSGCSTLS [STK11IP] | 0.06 | 0.05 | 0.04
16 | ISSLDLLPYGDRYIAKVLKNSIHEKF [IQGAP2] | 0.64 | 0.34 | 0.51
17 | CHGLRELALNYHLLSDELLLALSSEK [FBXL3] | 0.07 | 0.06 | 0.04
18 | NDDTPWIARTLDNLLDELTAILSAPA [GBP6] | 0.05 | 0.04 | 0.04
19 | NKTMTQLSSTLARCLKDILGFAVMFF [PKD2L1] | 0.19 | 0.12 | 
